4 molecules from US20180364250A1 (published 2018) can be followed below.

The target of one test is K63 Ub2. As to the kind of experiment: fluorescence competition with 5 nM Atto532-Ub(S20C) and 600 nM tSR.
The target in another test is K48 Ub4. Described as above.
In another test the target is K11 Ub2. The description is as above.
Test [1] deals with T1, Ubiquitin (free, untagged) (UniProt P0CG48 1-76). As to the kind of experiment: competition.
Test [2] concerns the target T1, Ubiquitin (free, untagged).
In test [3] the target is T1, Ubiquitin (free, untagged). The experiment in a line: fluorescence intensity.

Like-named read-outs stand apart in the source and are kept apart here.

B1: tSR (designed binder)
chain: MPSSHHHHHHSSGLVPRGSHMTEEEQIAYAMQMSLREAGGGSDLLCKKGCGYYGNPAWQGFCSKCWREEAHKCAAERAAAE
As a reminder, the Ki is the equilibrium dissociation constant of an inhibitor or competing ligand from its target. A high value points to a looser hold on the target. Consider B1, for which the Ki in the test with K63 Ub2 turned out to be 4.3 µM; with K48 Ub4, 4 µM; with K11 Ub2, 4.2 µM.

B2: tSR chimeric polypeptide sensor (designed binder)
chain: MPSSHHHHHHSSGLVPRGSHMTEEEQIAYAMQMSLREAGGGSDLLCKKGCGYYGNPAWQGFCSKCWREEAHKCAAERAAAE
Regarding B2, the affinity in test [1] corresponds to a Ki of 4.3 µM.

B3: Atto532-tagged IsoT^ZnF (S227C) (designed binder)
chain: MPSSHHHHHHSSGLVPRGSHMKQEVQAWDGEVRQVSKHAFSLKQLDNPARIPPSGWKCSKCDMRENLWLNLTDGSILCGRRYFDGCGGNNHAVEHYRETGYPLAVKLGTITPDGADVYSYDEDDMVLDPSLAEHLSHFGIDMLKMQK
modifications: Atto532 fluorophore on the Cys of S227C (the bold C of the 2nd table)
By Kd is commonly meant the free concentration of one partner at which half of the binding sites on the other are occupied at equilibrium, for simple one-to-one binding. A low value points to higher affinity. Molecule B3 registered an equilibrium dissociation constant (Kd) in test [2] of 8.4 µM.

B4: Atto532-tagged tIV L1 Cys (designed binder)
chain: MGSSHHHHHHSSGLVPRGSHMKQEVQAWDGEVRQVSKHAFSLKQLDNPARIPPSGWKCSKCDMRENLWLNLTDGSILCGRRYFDGSGGNNHAVEHYRETGYPLAVKLGTITPDGADVWSYDEDDMVLDPSLAEHLSHFGIDMLKMQKGSCAAAEEAELDLKAAIQESLREA
modifications: Atto532 fluorophore on the Cys of linker 1 (the bold C of the 2nd table)
In the case of B4, binding in test [3] was characterised by a dissociation constant (Kd) of 0.587 µM.
